The results in this text go back to patent publication US20200283521A1 (GRANULAR THERAPEUTICS, published 2020).

Changes are numbered by the printed parent chain. Like-named read-outs stand apart in the source and are kept apart here.

The target in experiment [1] is T1, h4-1BB-Fc.
T1 construct: member of the panel m9
The experiment in a line: direct ELISA on coated protein, IgG1.

Experiment [2] deals with T2, hDR6-Fc (human, UniProt O75509).
T2 construct: Fc fusion; member of the panel m9
T2 sequence (looked up): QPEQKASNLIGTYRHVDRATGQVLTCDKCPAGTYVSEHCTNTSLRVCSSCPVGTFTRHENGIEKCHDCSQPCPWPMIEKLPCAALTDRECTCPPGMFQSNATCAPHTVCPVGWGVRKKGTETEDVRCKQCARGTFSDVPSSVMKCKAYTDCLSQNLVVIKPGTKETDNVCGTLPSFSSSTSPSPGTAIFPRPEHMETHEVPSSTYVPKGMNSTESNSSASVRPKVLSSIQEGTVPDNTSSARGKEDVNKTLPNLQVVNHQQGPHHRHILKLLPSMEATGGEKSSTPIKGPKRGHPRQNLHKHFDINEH
The experiment in a line: direct ELISA on coated protein, IgG1. On the technique in general: An ELISA detects its analyte on a solid surface through an enzyme-linked reagent.

The target of the next experiment is T3, hCD4 (human, UniProt P01730).
T3 construct: purified recombinant protein; member of the panel m9
The experiment in a line: direct ELISA on coated protein, IgG1.

In experiment [3] the target is T4, hBAFFR-Fc (human, UniProt Q96RJ3).
T4 construct: Fc fusion; member of the panel m9
T4 sequence (Q96RJ3 7-71 limits assumed): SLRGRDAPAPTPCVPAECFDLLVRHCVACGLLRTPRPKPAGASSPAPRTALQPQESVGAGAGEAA
The experiment in a line: direct ELISA on coated protein, IgG1.

Another experiment deals with T5, hDR3-Fc (human, UniProt Q93038).
T5 construct: Fc fusion; member of the panel m9
T5 sequence (looked up): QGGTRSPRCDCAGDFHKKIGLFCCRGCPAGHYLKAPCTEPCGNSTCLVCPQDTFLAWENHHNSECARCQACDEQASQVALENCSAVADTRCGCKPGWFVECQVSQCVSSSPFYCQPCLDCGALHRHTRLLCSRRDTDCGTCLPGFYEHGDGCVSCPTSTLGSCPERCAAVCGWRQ
The experiment in a line: direct ELISA on coated protein, IgG1.

For experiment [4], the target named is T6, hLTBR-Fc (human, UniProt P36941).
T6 construct: Fc fusion; member of the panel m9
T6 sequence (P36941 28-227 limits assumed): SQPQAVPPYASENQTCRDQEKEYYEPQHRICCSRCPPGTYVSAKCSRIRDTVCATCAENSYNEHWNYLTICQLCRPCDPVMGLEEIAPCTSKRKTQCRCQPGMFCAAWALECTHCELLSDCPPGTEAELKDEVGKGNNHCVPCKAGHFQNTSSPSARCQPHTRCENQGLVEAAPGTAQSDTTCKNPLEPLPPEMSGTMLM
The experiment in a line: direct ELISA on coated protein, IgG1.

In experiment [5] the target is T7, hVCAM-1 (human, UniProt P19320).
T7 construct: purified recombinant protein; member of the panel m9
T7 sequence (looked up): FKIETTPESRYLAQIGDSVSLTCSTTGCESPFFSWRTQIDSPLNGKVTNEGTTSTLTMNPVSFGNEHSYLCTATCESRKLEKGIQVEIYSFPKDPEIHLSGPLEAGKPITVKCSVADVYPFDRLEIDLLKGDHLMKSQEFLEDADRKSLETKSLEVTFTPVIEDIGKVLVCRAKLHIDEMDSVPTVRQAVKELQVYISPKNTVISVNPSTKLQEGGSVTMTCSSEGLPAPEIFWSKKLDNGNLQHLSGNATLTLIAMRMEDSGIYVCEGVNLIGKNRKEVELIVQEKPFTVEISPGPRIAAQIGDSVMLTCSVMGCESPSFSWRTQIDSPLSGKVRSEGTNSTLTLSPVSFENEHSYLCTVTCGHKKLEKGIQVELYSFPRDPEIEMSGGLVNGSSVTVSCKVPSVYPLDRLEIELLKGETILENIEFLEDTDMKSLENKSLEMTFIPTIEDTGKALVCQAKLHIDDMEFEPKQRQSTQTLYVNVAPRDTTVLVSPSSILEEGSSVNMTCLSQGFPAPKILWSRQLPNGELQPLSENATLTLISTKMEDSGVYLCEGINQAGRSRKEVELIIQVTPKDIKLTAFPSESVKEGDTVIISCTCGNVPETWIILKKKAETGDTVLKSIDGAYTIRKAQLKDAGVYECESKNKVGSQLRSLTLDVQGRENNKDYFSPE
The experiment in a line: direct ELISA on coated protein, IgG1.

A further experiment has as its target T8, hTWEAK-Fc (human, UniProt O43508).
T8 construct: Fc fusion; member of the panel m9
T8 sequence (looked up): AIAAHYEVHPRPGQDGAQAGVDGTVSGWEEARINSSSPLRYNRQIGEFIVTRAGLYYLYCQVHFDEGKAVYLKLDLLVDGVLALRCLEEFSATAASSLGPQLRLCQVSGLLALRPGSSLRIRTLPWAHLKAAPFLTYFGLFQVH
The experiment in a line: direct ELISA on coated protein, IgG1.

The target of experiment [6] is T9, cynomolgus monkey C-KIT-Fc (cynomolgus monkey).
T9 construct: also called cyno C-KIT-Fc
The experiment in a line: direct titration ELISA on coated C-KIT-Fc, IgG1 format.
Protocol: Direct titration ELISA for second-generation designer IgGs binding to human and cyno C-KIT-Fc proteins.
To coat Greiner Bio-One High bind ELISA plates, target proteins were diluted to 1 μg/ml in carbonate buffer and added at 100 μl per well, at 4° C., o/n. Coated plates were washed 3× with PBS pH7.4, blocked with 1% BSA in PBS (380 μl/well) for 1 hr at RT, then washed 3× with PBS-Tween 20 (PBST). C-KIT antibodies (100 μl/well; diluted in PBST) were then added and then incubated 1 hr at RT. Plates were then washed 3× with PBST and goat anti-human kappa chain-HRP added (100 μl/well) at RT, for 1 hr. Plates were then washed 3× with PBST and twice with PBS before the addition of 100 μl TMB per well. Reactions were stopped by adding 100 μl 2M H₂SO₄/well and OD was read on a plate reader at 450 nm.

The target in experiment [7] is T1, h4-1BB-Fc. The experiment in a line: direct ELISA on coated protein, IgG1. The source holds these as a separate data set.
The next experiment addresses T10, hEpCAM-Fc (human, UniProt P16422).
T10 construct: Fc fusion; member of the panel m9
T10 sequence (looked up): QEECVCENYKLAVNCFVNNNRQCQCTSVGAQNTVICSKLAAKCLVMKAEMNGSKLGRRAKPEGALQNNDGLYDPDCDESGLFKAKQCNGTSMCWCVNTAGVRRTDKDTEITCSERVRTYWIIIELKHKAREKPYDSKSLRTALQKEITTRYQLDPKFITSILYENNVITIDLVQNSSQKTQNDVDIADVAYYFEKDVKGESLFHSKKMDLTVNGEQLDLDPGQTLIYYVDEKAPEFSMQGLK
The experiment in a line: direct ELISA on coated protein, IgG1.

The target in a further experiment is T11, hOX40-Fc.
T11 construct: member of the panel m9
T11 chain: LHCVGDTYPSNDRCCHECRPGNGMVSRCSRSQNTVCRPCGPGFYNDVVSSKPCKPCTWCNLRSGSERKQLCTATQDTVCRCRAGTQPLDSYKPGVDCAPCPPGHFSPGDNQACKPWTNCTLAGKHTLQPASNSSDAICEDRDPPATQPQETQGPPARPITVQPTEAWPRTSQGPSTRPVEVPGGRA
The experiment in a line: direct ELISA on coated protein, IgG1.

For experiment [8], the target named is T2, hDR6-Fc. The experiment in a line: direct ELISA on coated protein, IgG1. The source holds these as a separate data set.
The target of experiment [9] is T4, hBAFFR-Fc. The experiment in a line: direct ELISA on coated protein, IgG1. The source holds these as a separate data set.
The target of experiment [10] is T6, hLTBR-Fc. The experiment in a line: direct ELISA on coated protein, IgG1. The source holds these as a separate data set.
Experiment [11] addresses T7, hVCAM-1. The experiment in a line: direct ELISA on coated protein, IgG1. The source holds these as a separate data set.
The next experiment addresses T12, hICAM-1-Fc (human, UniProt P05362).
T12 construct: Fc fusion; member of the panel m9
The experiment in a line: direct ELISA on coated protein, IgG1.

The next experiment deals with T13, hVCAM-Fc.
T13 construct: member of the panel m9
T13 chain: T7 sequence (looked up)
The experiment in a line: direct ELISA on coated protein, IgG1.

T1 sequence (chain, as listed by the source limits assumed): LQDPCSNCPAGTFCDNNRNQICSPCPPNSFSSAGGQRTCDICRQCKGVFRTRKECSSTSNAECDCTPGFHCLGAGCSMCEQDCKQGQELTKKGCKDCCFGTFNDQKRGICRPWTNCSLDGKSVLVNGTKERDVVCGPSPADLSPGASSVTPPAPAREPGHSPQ
T12 sequence (P05362 28-480 limits assumed): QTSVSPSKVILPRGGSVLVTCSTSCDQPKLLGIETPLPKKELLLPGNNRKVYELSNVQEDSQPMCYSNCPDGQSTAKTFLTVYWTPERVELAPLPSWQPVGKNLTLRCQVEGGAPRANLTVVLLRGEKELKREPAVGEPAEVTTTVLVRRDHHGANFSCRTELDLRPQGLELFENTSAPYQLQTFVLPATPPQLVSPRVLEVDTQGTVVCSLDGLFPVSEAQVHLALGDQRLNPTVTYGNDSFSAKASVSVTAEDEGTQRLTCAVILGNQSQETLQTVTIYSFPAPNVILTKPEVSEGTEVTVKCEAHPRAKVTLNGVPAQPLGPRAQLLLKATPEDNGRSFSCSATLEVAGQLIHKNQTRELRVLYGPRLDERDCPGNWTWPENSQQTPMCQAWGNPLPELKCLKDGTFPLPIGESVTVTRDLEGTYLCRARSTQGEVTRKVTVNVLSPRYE

B1: humanized h37M, human IgG1 (antibody, V domains shown)
VH: QVQLVQSGAEVKKPGASVKLSCKASGYTFTDYYINWVRQAPGKGLEWIARIYPGSGNTYYNEKFKGRATLTADKSTSTAYMQLSSLRSEDTAVYFCARGVYYFDYWGQGTTVTVSS
VL: DIVMTQSPSSLSASVGDRVTITCKASQNVRTNVAWYQQKPGKAPKALIYSASYRYSGVPDRFTGSGSGTDFTLTISSLQPEDFADYFCQQYNSYPRTFGGGTKVEIK
notes: human IgG1; terbium-labelled as the tracer of the HTRF assays; also called C-KIT-h37M; h37M-IgG1
As to B1, the binding result with h4-1BB-Fc [1], with hDR6-Fc [2], in the experiment with hCD4, with hBAFFR-Fc [3], with hDR3-Fc and with hLTBR-Fc [4] was “no binding (tested: 1 µg/ml)” each time. Besides, the binding result with hVCAM-1 [5] and with hTWEAK-Fc was “no binding (tested: 1 µg/ml)” throughout.

B2: MH5, human IgG1 (antibody, V domains shown)
VH: QVQLVQSGAEVKKPGASVKVSCKASGYTFTDYYMNWVRQAPGQGLEWMGRIYPGSGNTYYAQKFQGRVTMTRDTSTSTVYMELSSLRSEDTAVYYCARGVYYYDYWGQGTLVTVSS
VL: DIQMTQSPSSLSASVGDRVTITCRASQGIRTNLAWFQQKPGKAPKSLIYSASSLQSGVPSRFSGSGSGTDFTLTISSLQPEDFATYYCQQYANYPRTFGGGTKVEIK
notes: IgG1; also called C-KIT-MH5; C-KIT-MHS
For orientation: EC50 (read off the curve) means the concentration needed to bring the measured effect to its halfway point. With B2, the “EC50 (read off the curve)” value in experiment [6] was about 0.1 µg/mL.

B3: MH5.22 (antibody, IgG1, V domains shown)
VH: B2 VH with Y32F, G54A, Y101W
VL: B2 VL with S50A
notes: IgG1; also called C-KIT-MH5.22
With B3, the binding result with h4-1BB-Fc [7], in the experiment with hEpCAM-Fc, with hOX40-Fc, in the experiment with hDR6-Fc [8], with hBAFFR-Fc [9] and with hLTBR-Fc [10] was “no binding (tested: 1 µg/ml)” throughout. Also, the binding result with hVCAM-1 [11], with hICAM-1-Fc and with hVCAM-Fc was “no binding (tested: 1 µg/ml)” throughout.
